The values that follow are results of earlier work, collected in article PMC3530658.

The data set deals with FEN-1 (Homo sapiens) (UniProt P39748).
Chain of UniProt P39748 (P39748 whole entry): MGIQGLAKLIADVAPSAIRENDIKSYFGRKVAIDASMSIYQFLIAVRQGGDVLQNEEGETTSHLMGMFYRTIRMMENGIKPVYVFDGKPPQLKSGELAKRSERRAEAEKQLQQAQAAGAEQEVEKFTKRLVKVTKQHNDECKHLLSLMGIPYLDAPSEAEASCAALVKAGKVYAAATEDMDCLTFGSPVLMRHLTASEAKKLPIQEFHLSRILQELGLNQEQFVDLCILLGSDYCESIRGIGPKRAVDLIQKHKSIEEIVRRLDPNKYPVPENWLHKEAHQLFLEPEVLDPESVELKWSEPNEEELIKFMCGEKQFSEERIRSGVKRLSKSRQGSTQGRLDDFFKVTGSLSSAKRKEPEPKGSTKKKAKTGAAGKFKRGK

On to NEIL1 CTD (from UniProt Q96FI4), for which the Kd is 200 nM.
